Data from patent US12427210B2, “Compounds comprising a fibroblast activation protein ligand and use thereof” (priority 2019, dated 2025).

Key:
Assay in all cases: radioligand displacement, compound at 10 µM
Details in all cases: remark: other sources report otherwise
[1] = target: mu (MOP) (h) (human), P35372
[2] = target: kappa (h) (KOP) (human), P41145
[3] = target: norepinephrine transporter (h) (human), P23975
[4] = target: T1, delta (DOP) (h) (human), P41143
T1 chain: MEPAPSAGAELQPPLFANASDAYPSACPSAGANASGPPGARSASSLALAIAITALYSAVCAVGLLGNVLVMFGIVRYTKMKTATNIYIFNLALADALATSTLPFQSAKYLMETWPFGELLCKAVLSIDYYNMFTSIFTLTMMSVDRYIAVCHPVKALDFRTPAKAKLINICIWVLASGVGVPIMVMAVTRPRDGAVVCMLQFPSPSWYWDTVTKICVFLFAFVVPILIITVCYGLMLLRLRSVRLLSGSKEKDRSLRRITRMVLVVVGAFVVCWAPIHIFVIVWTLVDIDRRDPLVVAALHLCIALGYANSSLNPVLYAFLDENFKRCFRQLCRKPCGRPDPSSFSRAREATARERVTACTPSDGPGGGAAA

D1 (h) (human), P21728 = target: T2, D1 (h) (human), P21728
T2 chain: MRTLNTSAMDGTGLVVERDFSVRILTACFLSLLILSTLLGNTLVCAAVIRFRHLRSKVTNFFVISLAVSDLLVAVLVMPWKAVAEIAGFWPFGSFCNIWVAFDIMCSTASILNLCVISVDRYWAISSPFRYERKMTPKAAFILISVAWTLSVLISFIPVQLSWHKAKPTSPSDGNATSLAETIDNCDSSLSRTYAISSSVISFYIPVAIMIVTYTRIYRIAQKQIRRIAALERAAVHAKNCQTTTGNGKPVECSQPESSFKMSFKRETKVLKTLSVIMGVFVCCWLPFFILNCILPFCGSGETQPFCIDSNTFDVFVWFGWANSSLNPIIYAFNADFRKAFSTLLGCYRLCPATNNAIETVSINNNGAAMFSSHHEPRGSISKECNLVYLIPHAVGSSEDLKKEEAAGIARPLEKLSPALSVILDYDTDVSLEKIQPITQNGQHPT

M3 (h) (human), P20309 = target: M3 (h) (human), P20309
GR (h) (human), P04150 = target: T3, GR (h) (human), P04150
T3 chain: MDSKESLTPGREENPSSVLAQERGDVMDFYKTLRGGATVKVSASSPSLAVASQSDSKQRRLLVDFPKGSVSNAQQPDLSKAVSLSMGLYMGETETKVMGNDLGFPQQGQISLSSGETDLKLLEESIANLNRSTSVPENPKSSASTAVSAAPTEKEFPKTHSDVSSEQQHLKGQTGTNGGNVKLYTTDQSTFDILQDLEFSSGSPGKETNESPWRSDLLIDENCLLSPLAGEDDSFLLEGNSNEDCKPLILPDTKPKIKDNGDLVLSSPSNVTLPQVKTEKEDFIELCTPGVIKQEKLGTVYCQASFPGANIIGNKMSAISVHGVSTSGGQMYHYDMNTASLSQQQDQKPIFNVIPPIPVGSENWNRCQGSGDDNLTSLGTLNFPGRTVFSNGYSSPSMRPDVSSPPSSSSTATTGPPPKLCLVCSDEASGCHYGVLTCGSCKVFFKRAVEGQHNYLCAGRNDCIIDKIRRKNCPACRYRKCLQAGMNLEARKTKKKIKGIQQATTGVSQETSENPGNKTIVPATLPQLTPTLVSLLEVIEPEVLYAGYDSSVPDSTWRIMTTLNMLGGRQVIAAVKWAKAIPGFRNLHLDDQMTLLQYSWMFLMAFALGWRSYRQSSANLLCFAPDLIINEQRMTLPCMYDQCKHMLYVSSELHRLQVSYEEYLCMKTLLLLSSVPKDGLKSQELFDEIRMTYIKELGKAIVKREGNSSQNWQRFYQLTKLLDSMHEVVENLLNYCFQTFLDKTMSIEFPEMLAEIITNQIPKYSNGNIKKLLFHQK

[5] = substrate: N neuronal alpha 4beta 2 (h) (human), P43681
[6] = target: beta 1 (h) (human), P08588
CB1 (h) (human), P21554 = target: T4, CB1 (h) (human), P21554
T4 chain: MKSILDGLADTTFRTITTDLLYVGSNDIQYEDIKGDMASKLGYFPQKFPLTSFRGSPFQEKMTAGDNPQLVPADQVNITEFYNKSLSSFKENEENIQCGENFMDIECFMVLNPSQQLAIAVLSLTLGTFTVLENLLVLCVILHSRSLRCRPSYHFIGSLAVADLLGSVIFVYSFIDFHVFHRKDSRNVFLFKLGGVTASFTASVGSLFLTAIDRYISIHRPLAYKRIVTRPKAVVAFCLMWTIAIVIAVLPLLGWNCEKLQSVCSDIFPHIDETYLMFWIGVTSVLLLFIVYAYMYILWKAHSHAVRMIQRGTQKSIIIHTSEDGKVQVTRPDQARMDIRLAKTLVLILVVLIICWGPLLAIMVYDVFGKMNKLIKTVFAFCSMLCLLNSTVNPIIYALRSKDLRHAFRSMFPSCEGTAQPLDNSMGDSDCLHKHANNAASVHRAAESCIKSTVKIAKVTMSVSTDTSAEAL

[7] = target: T5, 5-HT1A (h) (human), P08908
T5 chain: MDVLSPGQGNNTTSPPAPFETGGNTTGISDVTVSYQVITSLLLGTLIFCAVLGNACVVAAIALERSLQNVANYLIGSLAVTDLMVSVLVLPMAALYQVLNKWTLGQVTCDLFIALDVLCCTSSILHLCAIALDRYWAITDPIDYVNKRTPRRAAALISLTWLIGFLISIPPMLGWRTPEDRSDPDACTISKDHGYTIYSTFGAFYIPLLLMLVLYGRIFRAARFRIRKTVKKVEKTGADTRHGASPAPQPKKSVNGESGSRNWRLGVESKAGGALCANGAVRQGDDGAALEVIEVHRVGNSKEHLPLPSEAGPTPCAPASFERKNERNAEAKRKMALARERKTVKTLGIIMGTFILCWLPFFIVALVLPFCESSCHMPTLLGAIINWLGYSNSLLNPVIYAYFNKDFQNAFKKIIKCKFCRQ

Sequence of mu (MOP) (h) (human), P35372 (P35372 whole entry): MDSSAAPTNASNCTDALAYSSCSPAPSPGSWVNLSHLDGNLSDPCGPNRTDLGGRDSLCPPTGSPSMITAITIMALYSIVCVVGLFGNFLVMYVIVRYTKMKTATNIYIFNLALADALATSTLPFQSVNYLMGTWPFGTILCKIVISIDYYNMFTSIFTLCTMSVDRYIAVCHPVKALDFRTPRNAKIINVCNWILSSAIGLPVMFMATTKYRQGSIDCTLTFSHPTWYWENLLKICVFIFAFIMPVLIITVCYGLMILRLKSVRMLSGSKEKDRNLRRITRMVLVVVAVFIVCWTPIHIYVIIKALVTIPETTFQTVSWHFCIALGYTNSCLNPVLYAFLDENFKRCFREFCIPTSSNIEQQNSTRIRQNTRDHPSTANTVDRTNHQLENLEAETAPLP
Sequence of norepinephrine transporter (h) (human), P23975 (P23975 whole entry): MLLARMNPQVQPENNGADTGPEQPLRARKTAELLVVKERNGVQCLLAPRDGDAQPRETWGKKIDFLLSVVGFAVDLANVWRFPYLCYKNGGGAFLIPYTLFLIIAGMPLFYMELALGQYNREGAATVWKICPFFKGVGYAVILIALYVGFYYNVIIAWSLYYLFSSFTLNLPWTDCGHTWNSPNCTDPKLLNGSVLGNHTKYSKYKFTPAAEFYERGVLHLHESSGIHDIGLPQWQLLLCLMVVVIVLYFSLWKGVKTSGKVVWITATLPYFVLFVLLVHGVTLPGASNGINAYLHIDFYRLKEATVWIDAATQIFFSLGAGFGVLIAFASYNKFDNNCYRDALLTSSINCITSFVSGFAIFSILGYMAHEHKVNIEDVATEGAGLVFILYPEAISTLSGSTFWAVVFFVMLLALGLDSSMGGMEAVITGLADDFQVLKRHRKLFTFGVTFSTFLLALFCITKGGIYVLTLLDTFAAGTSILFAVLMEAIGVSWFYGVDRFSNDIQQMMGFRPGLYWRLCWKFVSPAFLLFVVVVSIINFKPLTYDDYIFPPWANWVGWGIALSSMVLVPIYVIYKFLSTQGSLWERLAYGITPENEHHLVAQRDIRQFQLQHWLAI
Sequence of kappa (h) (KOP) (human), P41145 (P41145 whole entry): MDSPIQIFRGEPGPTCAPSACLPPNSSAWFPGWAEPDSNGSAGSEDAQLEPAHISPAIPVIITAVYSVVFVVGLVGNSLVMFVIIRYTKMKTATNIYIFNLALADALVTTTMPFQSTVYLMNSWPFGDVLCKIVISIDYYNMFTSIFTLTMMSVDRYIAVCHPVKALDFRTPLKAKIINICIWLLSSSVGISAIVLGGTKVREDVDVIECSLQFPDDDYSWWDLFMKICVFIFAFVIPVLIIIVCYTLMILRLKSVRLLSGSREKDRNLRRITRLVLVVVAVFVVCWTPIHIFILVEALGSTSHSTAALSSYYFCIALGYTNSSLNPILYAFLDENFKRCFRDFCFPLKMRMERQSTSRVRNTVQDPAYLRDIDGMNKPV

| Binder | % Inhibition of Specific Binding [1] [%] | % Inhibition of Specific Binding [2] [%] | % Inhibition of Specific Binding [3] [%] | % Inhibition of Specific Binding [4] [%] | % Inhibition of Specific Binding (D1 (h) (human), P21728) [%] | % Inhibition of Specific Binding (M3 (h) (human), P20309) [%] | % Inhibition of Specific Binding (GR (h) (human), P04150) [%] | % Inhibition of Specific Binding [5] [%] | % Inhibition of Specific Binding [6] [%] | % Inhibition of Specific Binding (CB1 (h) (human), P21554) [%] | % Inhibition of Specific Binding [7] [%] |
| --- | --- | --- | --- | --- | --- | --- | --- | --- | --- | --- | --- |
| CPPTQFCD (here or on the partner: N-terminal hexanoyl (Hex); Cys1 and Cys7 cyclised through tMeBn carrying DOTA-PP; C-terminal amide) [Hex-[Cys(tMeBn(DOTA-PP))-Pro-Pro-Thr-Gln-Phe-Cys]-Asp-NH2 (3BP-3407)] | 2 | 7 | -8 | 0 | 0 | 10 | -2 | -8 | 4 | 5 | -3 |
| CPPTQFC (here or on the partner: N-terminal hexanoyl (Hex); Cys1 and Cys7 cyclised through tMeBn carrying DOTA-AET; free C-terminal acid (-OH)) [Hex-[Cys(tMeBn(DOTA-AET))-Pro-Pro-Thr-Gln-Phe-Cys]-OH (3BP-3554)] | -10 | 10 | -5 | 1 | 7 | 1 | 0 | -2 | -13 | -7 | -5 |
